Assay results taken from the supplement of paper PMC6757056.
± gives the standard deviation of the averaged measurements.

B1: library; a variant is named by its letters at N, in order (parent)
chain: GCUGUCACCGGUGUAUUACCCUAGUGGUCGACCGGUCUGAUGAGUCUNNNNNNAGACGAAACAGC

Experiments:
hypoxanthine [1] = variants of: B1; assay: FACS-Seq fitted mean relative fluorescence mCherry/BFP without ligand (log10 relative fluorescence); ligand: hypoxanthine (xanthine aptamer); higher = higher reporter protein expression; details: HEK293T, ligand present: no
In short: (§1)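 With or without ligand for 48 h, enriched HEK293T libraries carrying a lentiviral ribozyme-switch mCherry reporter and EF1α-BFP were sorted into 6 mCherry/BFP bins. Bin genomic DNA was amplified by PCR, barcoded and sequenced on MiSeq. Fluorescence was taken from normal fits to the resulting bin counts. Each fitted mean of log10(mCherry/BFP) was scaled to five spiked-in control ribozymes.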

hypoxanthine [2] = variants of: B1; assay: normalized RNA/DNA level with ligand (relative to sTRSVctl = 100) (log10 (% of sTRSVctl)); ligand: hypoxanthine (xanthine aptamer); higher = less ribozyme self-cleavage, higher mRNA level; details: ligand concentration (+) RNA-Seq: 5 mM, HEK293T, reporter: mCherry (pCS4076), ligand present: yes
In short: (§2)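 Total RNA, extracted with EDTA 72 h after HEK293T cells were transfected with 4 µg per 6-well well of reporter-linked ribozyme switch library plasmids, was reverse-transcribed, amplified, barcoded and sequenced. Ligand, if used, was added 1 h before transfection. RNA level was derived from RNA reads divided by DNA reads and normalized to a spiked-in non-cleaving sequence or to the top sequences. This was multiplied by 100 and log10-transformed, with the top set of 25 sequences and a ≥100 DNA read minimum.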

hypoxanthine [3] = variants of: B1; assay: normalized RNA/DNA level without ligand (relative to sTRSVctl = 100) (log10 (% of sTRSVctl)); ligand: hypoxanthine (xanthine aptamer); higher = less ribozyme self-cleavage, higher mRNA level; details: HEK293T, reporter: mCherry (pCS4076), ligand present: no
In short: as §2

hypoxanthine [4] = variants of: B1; assay: FACS-Seq fitted mean relative fluorescence mCherry/BFP with ligand (log10 relative fluorescence); ligand: hypoxanthine (xanthine aptamer); ligand concentration (+) FACS-Seq: 5 mM; higher = higher reporter protein expression; details: HEK293T, ligand present: yes
In short: as §1

Variant | FACS-Seq fitted mean (log10) (hypoxanthine [1]) | normalized RNA/DNA level with ligand (log10) (hypoxanthine [2]) | normalized RNA/DNA level without ligand (log10) (hypoxanthine [3]) | FACS-Seq fitted mean (log10) (hypoxanthine [4])
GGCGGA | 0.416 ± 0.079 | 1.98 ± 0.043 | 1.837 ± 0.013 | 0.534 ± 0.03
AGCUCG | 0.177 ± 0.0048 | 1.931 ± 0.0082 | 1.63 ± 0.11 | 0.448 ± 0.0069
AGCUGA | 0.203 ± 0.08 | 1.91 ± 0.043 | 1.74 ± 0.067 | 0.0306 ± 0.017
AGCUGG | -0.403 ± 0.022 | 1.91 ± 0.069 | 1.57 ± 0.035 | -0.291 ± 0.096
AGCUGC | 0.448 ± 0.0077 | 2 ± 0.035 | 1.87 ± 0.076 | 0.755 ± 0.036
AGCGAG | 0.352 ± 0.055 | 1.8 ± 0.031 | 1.36 ± 0.062 | 0.443 ± 0.043
AGCGAA | 0.534 ± 0.068 | 1.924 ± 0.017 | 1.6852 ± 0.00025 | 0.62 ± 0.014
AGCGAC | -0.228 ± 0.049 | 1.93 ± 0.043 | 1.787 ± 0.00037 | 0.298 ± 0.021
AGAUGA | 0.409 ± 0.022 | 1.93 ± 0.05 | 1.65 ± 0.034 | 0.591 ± 0.025
AGAUGU | 0.466 ± 0.021 | 1.9 ± 0.037 | 1.56 ± 0.031 | 0.748 ± 0.053
AGAUGG | -0.23 ± 0.04 | 1.84 ± 0.035 | 1.36 ± 0.019 | 0.0811 ± 0.0062
AGAUUC | 0.691 ± 0.017 | 1.92 ± 0.051 | 1.92 ± 0.037 | 0.707 ± 0.069
GGCAAA | -0.106 ± 0.017 | 1.9638 ± 0.0011 | 1.83 ± 0.037 | -0.0498 ± 0.0022
GGCAAU | -0.272 ± 0.047 | 1.92 ± 0.04 | 1.86 ± 0.024 | -0.0445 ± 0.018
GGCAAG | 0.564 ± 0.072 | 1.88 ± 0.028 | 1.47 ± 0.022 | 0.712 ± 0.075
GGCAAC | -0.242 ± 0.05 | 1.947 ± 0.0067 | 1.86 ± 0.024 | -0.0947 ± 0.011
GGCAUG | 0.213 ± 0.11 | 1.88 ± 0.058 | 1.45 ± 0.042 | 0.621 ± 0.098
UGCGGC | 0.67 ± 0.028 | 1.98 ± 0.035 | 1.9 ± 0.071 | 0.708 ± 0.037
UGCGGA | 0.465 ± 0.014 | 1.87 ± 0.056 | 1.518 ± 0.0062 | 0.733 ± 0.033
UGACUA | 0.629 ± 0.091 | 1.953 ± 0.017 | 1.86 ± 0.029 | 0.141 ± 0.079
UGACUC | 0.621 ± 0.043 | 2.01 ± 0.036 | 1.97 ± 0.033 | 0.678 ± 0.044
GGAUCG | 0.142 ± 0.037 | 1.95 ± 0.053 | 1.6404 ± 0.0014 | 0.517 ± 0.05
CGAUGG | 0.217 ± 0.024 | 1.89 ± 0.029 | 1.42 ± 0.087 | 0.628 ± 0.045
UGAUUU | 0.485 ± 0.022 | 1.945 ± 0.0024 | 1.924 ± 0.012 | 0.6805 ± 0.0064

Variant | FACS-Seq fitted mean (log10) (hypoxanthine [1]) | normalized RNA/DNA level with ligand (log10) (hypoxanthine [2]) | normalized RNA/DNA level without ligand (log10) (hypoxanthine [3]) | FACS-Seq fitted mean (log10) (hypoxanthine [4])
UGAUUC | 0.59 ± 0.061 | 1.993 ± 0.0057 | 1.977 ± 0.011 | 0.627 ± 0.06
UGCAAG | 0.123 ± 0.078 | 1.853 ± 0.0049 | 1.72 ± 0.021 | 0.179 ± 0.031
UGCAAA | 0.613 ± 0.029 | 1.879 ± 0.0083 | 1.787 ± 0.017 | 0.635 ± 0.019
AGAUAC | 0.757 ± 0.025 | 1.91 ± 0.052 | 1.74 ± 0.029 | 0.699 ± 0.065
AGAUAA | 0.265 ± 0.036 | 1.88 ± 0.022 | 1.75 ± 0.042 | -0.0706 ± 0.047
UGCUGA | 0.117 ± 0.0063 | 1.92 ± 0.013 | 1.68 ± 0.021 | 0.0171 ± 0.11
AGCAUG | 0.201 ± 0.012 | 1.87 ± 0.079 | 1.4892 ± 0.001 | -0.275 ± 0.19
AGCAUA | 0.318 ± 0.075 | 1.9 ± 0.044 | 1.82 ± 0.02 | 0.286 ± 0.19
AGCAUU | -0.328 ± 0.0053 | 1.92 ± 0.065 | 1.86 ± 0.057 | -0.19 ± 0.0097
GGAUUG | 0.023 ± 0.012 | 1.857 ± 0.017 | 1.42 ± 0.059 | 0.4602 ± 0.0025
AGCAGA | 0.386 ± 0.043 | 1.879 ± 0.01 | 1.41 ± 0.027 | 0.623 ± 0.019
AGCAGG | 0.0745 ± 0.0069 | 1.83 ± 0.055 | 1.396 ± 0.0059 | 0.533 ± 0.079
AGCAGC | 0.426 ± 0.013 | 1.99 ± 0.058 | 1.74 ± 0.049 | 0.54 ± 0.14
GGAUGA | 0.427 ± 0.085 | 1.89 ± 0.035 | 1.618 ± 0.0099 | 0.633 ± 0.029
GGAUGC | -0.0215 ± 0.024 | 1.85 ± 0.066 | 1.47 ± 0.075 | 0.483 ± 0.029
GGAUGG | 0.131 ± 0.02 | 1.85 ± 0.027 | 1.33 ± 0.034 | 0.472 ± 0.035
AGCGCG | 0.0574 ± 0.015 | 1.91 ± 0.083 | 1.43 ± 0.051 | 0.359 ± 0.012
AGCGCU | 0.228 ± 0.049 | 1.93 ± 0.032 | 1.85 ± 0.028 | 0.22 ± 0.0027
GGACUG | 0.544 ± 0.086 | 1.888 ± 0.012 | 1.58 ± 0.041 | 0.601 ± 0.1
GGCAGA | 0.082 ± 0.022 | 1.921 ± 0.0091 | 1.51 ± 0.065 | 0.449 ± 0.062
GGCAGU | 0.196 ± 0.14 | 1.98 ± 0.04 | 1.85 ± 0.046 | 0.205 ± 0.0051
GGCAGC | 0.306 ± 0.06 | 1.921 ± 0.012 | 1.603 ± 0.0027 | 0.651 ± 0.043
UGCAGG | 0.297 ± 0.033 | 1.8726 ± 0.0012 | 1.39 ± 0.073 | 0.49 ± 0.056
UGCAGA | 0.169 ± 0.0021 | 1.84 ± 0.032 | 1.43 ± 0.021 | 0.4015 ± 0.00097

Variant | FACS-Seq fitted mean (log10) (hypoxanthine [1]) | normalized RNA/DNA level with ligand (log10) (hypoxanthine [2]) | normalized RNA/DNA level without ligand (log10) (hypoxanthine [3]) | FACS-Seq fitted mean (log10) (hypoxanthine [4])
UGCAGU | -0.0358 ± 0.0051 | 1.906 ± 0.016 | 1.434 ± 0.0054 | 0.345 ± 0.15
AGCCGG | -0.0509 ± 0.035 | 1.91 ± 0.012 | 1.67 ± 0.02 | 0.305 ± 0.055
AGCCGA | 0.399 ± 0.018 | 1.925 ± 0.0069 | 1.68 ± 0.027 | 0.547 ± 0.036
GGCGUG | 0.107 ± 0.021 | 1.91 ± 0.088 | 1.52 ± 0.022 | 0.291 ± 0.076
GGAGUC | 0.764 ± 0.047 | 1.93 ± 0.042 | 1.885 ± 0.014 | 0.567 ± 0.047
GGAGUG | 0.301 ± 0.025 | 1.85 ± 0.027 | 1.413 ± 0.014 | 0.7 ± 0.032
AGCCAU | -0.282 ± 0.012 | 1.92 ± 0.052 | 1.78 ± 0.027 | 0.15 ± 0.033
AGCCAA | 0.57 ± 0.1 | 1.888 ± 0.017 | 1.8 ± 0.028 | 0.566 ± 0.067
AGCCAG | 0.512 ± 0.025 | 1.89 ± 0.024 | 1.591 ± 0.007 | 0.71 ± 0.041
UGCGCG | 0.142 ± 0.0059 | 1.94 ± 0.032 | 1.75 ± 0.035 | 0.383 ± 0.012
UGCCAC | 0.327 ± 0.019 | 1.94 ± 0.031 | 1.89 ± 0.02 | 0.42 ± 0.01
UGCCAG | 0.421 ± 0.0089 | 1.9 ± 0.034 | 1.727 ± 0.0076 | 0.288 ± 0.093
CGCGCC | 0.276 ± 0.055 | 1.93 ± 0.021 | 1.96 ± 0.044 | 0.445 ± 0.033
AGAGUA | 0.5286 ± 0.0017 | 1.892 ± 0.0036 | 1.7 ± 0.034 | 0.675 ± 0.034
CGCGUA | 0.477 ± 0.0013 | 1.95 ± 0.041 | 1.81 ± 0.067 | 0.659 ± 0.013
GGAUAA | 0.5354 ± 0.0025 | 1.9 ± 0.025 | 1.74 ± 0.024 | 0.552 ± 0.016
GGAUAC | 0.616 ± 0.019 | 1.93 ± 0.026 | 1.73 ± 0.042 | 0.623 ± 0.084
GGAUAG | 0.188 ± 0.013 | 1.83 ± 0.028 | 1.39 ± 0.049 | 0.508 ± 0.041
UGAGGA | 0.402 ± 0.033 | 1.885 ± 0.015 | 1.5 ± 0.056 | 0.633 ± 0.061
AGCACA | -0.251 ± 0.011 | 1.92 ± 0.044 | 1.787 ± 0.0038 | -0.513 ± 0.043
AGCACG | 0.385 ± 0.023 | 1.87 ± 0.055 | 1.44 ± 0.085 | 0.609 ± 0.062
AGCACC | -0.563 ± 0.05 | 1.98 ± 0.063 | 1.844 ± 0.0071 | -0.00735 ± 0.0039
UGCGUA | 0.287 ± 0.015 | 1.92 ± 0.05 | 1.86 ± 0.032 | 0.413 ± 0.031
